System: U937 (CLL1+) cells
Assay: Cytotoxicity assay, sCAR-T cells + anti-CLL1 switches
Format: cell-based
Conditions: with short-dimeric CAR
From the text: FIG. 38A illustrates multiple fusion/grafting locations: A=LCNT1 (light chain N terminus version 1), B=HCNT3 (heavy chain N terminus version 3), C=heavy chain C terminus, and D=light chain C terminus). […] Data shown are an average of duplicate samples, and error bars represent SD. Only the NT switches plus the BvCT and By CH1CL1 as references are depicted.
By utilizing the “universal” anti-peptide sCART cell, multiple switches targeting multiple cancer associated antigens can be rapidly developed. An example of this is the generation of peptide engrafted switches against the AML associated antigen CLL1. A series of 6 plasmids were designed into which commercially synthesized gene-blocks encoding scFv sequences were inserted by gibson phase assembly to generate: Light chain wild type, light chain N-terminal, light chain C-terminal, heavy chain wild type, heavy chain N-terminal and heavy chain C-terminal plasmid constructs. […]
Another example (see Example 7) of switch SAR was shown with the anti-CLL1 switch derived from the anti-CLL1 antibody clone. […] Using these switches in combination with the three different CAR constructs (long, short and short dimeric) in cytotoxicity assays with the CLL1^+U937 cell line it was determined that N-terminal bivalent switches with the short-dimeric CAR was the most optimal for immunological synapse for the in vitro killing of U937 cells (FIG. 38D). […]

B1: anti-CLL1 switch A + B: anti-CLL1 Fab switch, N-terminal bivalent (LCNT & HCNT; SEQ ID 102 & 103) (antibody)
heavy: NYHLENEVARLKKLLVGEAAAKEAAAKADIQLQESGPGLVKPSQSLSLTCSVTGYSITSAYYWNWIRQFPGNKLEWMGYISYDGRNNYNPSLKNRISITRDTSKNQFFLKLNSVTTEDTATYYCAKEGDYDVGNYYAMDYWGQGTSVTVSSARTKGPSVFPLAPSSKSTSGGTAALGCLVKDYFPEPVTVSWNSGALTSGVHTFPAVLQSSGLYSLSSVVTVPSSSLGTQTYICNVNHKPSNTKVDKKVEPKSC
light: NYHLENEVARLKKLGGGGSENVLTQSPAIMSASPGEKVTMTCRASSNVISSYVHWYQQRSGASPKLWIYSTSNLASGVPARFSGSGSGTSYSLTISSVEAEDAATYYCQQYSGYPLTFGAGTKLELKRAAAAPSVFIFPPSDEQLKSGTASVVCLLNNFYPREAKVQWKVDNALQSGNSQESVTEQDSKDSTYSLSSTLTLSKADYEKHKVYACEVTHQGLSSPVTKSFNRGEC
modifications: peptide on N-termini; Made in lab - CLL1(1075.7)-HC_NT3 switch antibody polynucleotide; Made in lab - CLL1(1075.7)-LC_NT1 switch antibody polynucleotide
immunological synapse for in vitro killing: most optimal
